The IC50 is the concentration that inhibits the measured activity by half. Usually Kd stands for the constant that tells how readily two partners part at equilibrium. Low readings indicate a tighter complex, high ones a looser complex.

Bounds are passed on as bounds.

Among the data in the Immune Epitope Database (IEDB) are IC50 and Kd values, retold here.

The target of experiment [1] is HLA-A*02:01. Nature of the experiment: IEDB peptide-MHC binding, purified MHC/competitive/radioactivity; ≥ and ≤ were set here for values at or beyond the usual limits of such assays.
Another experiment concerns the target HLA-A*03:01. Nature of the experiment: IEDB peptide-MHC binding, purified MHC/direct/fluorescence; filed as Kd, often an IC50 or EC50 that approximates it; ≥ and ≤ were set here for values at or beyond the usual limits of such assays.
For experiment [2], the target named is HLA-B*57:01. Described as above. As to conditions: source organism: Influenza A virus (A/Wisconsin/4755/1994(H1N1)).
A further experiment addresses HLA-B*46:01. Described as above. As to conditions: source organism: Influenza A virus (A/Wisconsin/4755/1994(H1N1)).
For experiment [3], the target named is HLA-B*15:17. The experiment is described as above. The settings on record: source organism: Influenza A virus (A/Wisconsin/4755/1994(H1N1)).
Experiment [4] concerns the target HLA-A*02:01. The description is as above.
The target in another experiment is HLA-B*48:01. Described as above. The settings on record: source organism: Influenza A virus (A/Wisconsin/4755/1994(H1N1)).
The target in another experiment is HLA-B*07:02. Described as above.
In another experiment the target is HLA-B*40:01. The experiment is described as above. As to conditions: source organism: Influenza A virus (A/Wisconsin/4755/1994(H1N1)).
A further experiment has as its target HLA-A*31:01. The description is as above.
Another experiment concerns the target HLA-A*68:02. Described as above. The settings on record: source organism: Influenza A virus (A/Wisconsin/4755/1994(H1N1)).
In experiment [5] the target is HLA-B*18:01. Described as above. The settings on record: source organism: Influenza A virus (A/Wisconsin/4755/1994(H1N1)).
The next experiment concerns the target HLA-A*69:01. Described as above.
In experiment [6] the target is HLA-B*15:01. Described as above.
A further experiment addresses HLA-B*27:05. The experiment is described as above.
The target in experiment [7] is HLA-A*11:01. The experiment is described as above.
The target of experiment [8] is HLA-A*26:02. The description is as above.
Another experiment addresses HLA-B*08:01. The description is as above. As to conditions: source organism: Influenza A virus (A/seal/Mass/1/1980(H7N7)).
The target in the next experiment is HLA-B*58:01. The description is as above.
Experiment [9] has as its target HLA-A*01:01. The description is as above. The settings on record: source organism: Influenza A virus (A/Wisconsin/4755/1994(H1N1)).
A further experiment deals with HLA-A*26:01. The experiment is described as above. The settings on record: source organism: Influenza A virus H3N2.
The next experiment has as its target HLA-A*30:01. In words: IEDB peptide-MHC binding, purified MHC/competitive/fluorescence; filed as Kd, often an IC50 or EC50 that approximates it; ≥ and ≤ were set here for values at or beyond the usual limits of such assays. As to conditions: source organism: Human immunodeficiency virus 1.
The target in experiment [10] is HLA-B*57:01. The description is as above. As to conditions: source organism: Human immunodeficiency virus 1.
Experiment [11] has as its target HLA-B*15:17. The experiment is described as above. The settings on record: source organism: Human immunodeficiency virus 1.
The target of the next experiment is HLA-A*02:03. The experiment is described as above. The settings on record: source organism: Human immunodeficiency virus 1.
Experiment [12] has as its target HLA-B*18:01. Described as above. As to conditions: source organism: Human immunodeficiency virus 1.
In experiment [13] the target is HLA-B*15:01. The description is as above. The settings on record: source organism: Human immunodeficiency virus 1.
The target in another experiment is HLA-A*02:06. The description is as above. As to conditions: source organism: Human immunodeficiency virus 1.
Experiment [14] addresses HLA-A*11:01. Described as above.
The target of experiment [15] is HLA-A*26:02. Described as above. The settings on record: source organism: Human immunodeficiency virus 1.
The target of experiment [16] is HLA-A*01:01. The experiment is described as above. The settings on record: source organism: Human immunodeficiency virus 1.
A further experiment addresses HLA-C*06:02. In words: IEDB peptide-MHC binding, purified MHC/direct/fluorescence; filed as Kd, often an IC50 or EC50 that approximates it; ≥ and ≤ were set here for values at or beyond the usual limits of such assays.
A further experiment has as its target HLA-C*15:02. Described as above. The settings on record: source organism: Bacillus cereus G9241.
The target of another experiment is HLA-A*32:07. In words: IEDB peptide-MHC binding, purified MHC/competitive/fluorescence; filed as Kd, often an IC50 or EC50 that approximates it; ≥ and ≤ were set here for values at or beyond the usual limits of such assays.
Another experiment concerns the target HLA-B*15:42. The description is as above.
For the next experiment, the target named is HLA-A*24:03. The description is as above. The settings on record: source organism: Bacillus cereus G9241.
For another experiment, the target named is HLA-C*14:02. The description is as above. As to conditions: source organism: Bacillus cereus G9241.
The target in the next experiment is HLA-B*83:01. The experiment is described as above.
The target of another experiment is HLA-B*45:06. The description is as above.
In the next experiment the target is HLA-C*03:03. In words: IEDB peptide-MHC binding, purified MHC/direct/fluorescence; filed as Kd, often an IC50 or EC50 that approximates it; ≥ and ≤ were set here for values at or beyond the usual limits of such assays. The settings on record: source organism: Homo sapiens.
Where [17] appears, read: source organism: Influenza A virus (A/Wisconsin/4755/1994(H1N1)).
[18] abbreviates: source organism: Bacillus cereus G9241.

RTYSGPMNKV: the IC50 in the experiment with HLA-A*02:01 [1] (source organism: Homo sapiens) was found to be 793 nM.

As for DPKKTGGPI, the Kd with HLA-A*03:01 (setting [17]), with HLA-B*57:01 [2], with HLA-B*46:01, with HLA-B*15:17 [3], with HLA-A*02:01 [4] (setting [17]) and in the experiment with HLA-B*48:01 was at least 20000 nM each time. Further, the Kd with HLA-B*07:02 (source organism: Influenza A virus (A/seal/Mass/1/1980(H7N7))) is 84.9 nM; in the experiment with HLA-B*40:01, at least 20000 nM; with HLA-A*31:01 (setting [17]), at least 20000 nM; with HLA-A*68:02 it was at least 20000 nM; with HLA-B*18:01 [5], at least 20000 nM; with HLA-A*69:01 (setting [17]), at least 20000 nM. Further, the Kd with HLA-B*15:01 [6] (setting [17]), in the experiment with HLA-B*27:05 (setting [17]), with HLA-A*11:01 [7] (setting [17]), with HLA-A*26:02 [8] (source organism: Influenza A virus H3N2), with HLA-B*08:01 and with HLA-B*58:01 (setting [17]) was at least 20000 nM in each case. Moreover, the Kd with HLA-A*01:01 [9] and with HLA-A*26:01 was at least 20000 nM in each case.

Consider ALSRKVAEL, for which the IC50 with HLA-A*02:01 [1] (source organism: Homo sapiens) worked out at 100 nM.

For the sequence IMDKNIILKA, in the experiment with HLA-A*02:01 [1] (source organism: Influenza A virus (A/Puerto Rico/8/1934(H1N1))), the IC50 is 43000 nM.

Take EYTDYMPSM: in the experiment with HLA-A*26:02 [8] (source organism: Dengue virus 2 Thailand/16681/84), the Kd came to 26 nM.

Take KSLYNTIATLY: the Kd was at least 20000 nM with HLA-A*30:01; 652 nM in the experiment with HLA-B*57:01 [10]; 12.6 nM in the experiment with HLA-B*15:17 [11]; at least 20000 nM in the experiment with HLA-A*02:03; 346 nM with HLA-B*18:01 [12]; at least 20000 nM with HLA-B*15:01 [13]. Also, the Kd came to 2020 nM with HLA-A*02:06, 697 nM in the experiment with HLA-A*11:01 [14] (source organism: Human immunodeficiency virus 1), 1060 nM with HLA-A*26:02 [15] and 2910 nM with HLA-A*01:01 [16].

In the case of YYKKTFSAL, the equilibrium dissociation constant (Kd) with HLA-C*06:02 (setting [18]) was 1660 nM; in the experiment with HLA-C*15:02, at least 20000 nM; with HLA-A*32:07 (setting [18]) it was 29 nM; with HLA-B*15:42 (setting [18]) it was at least 5000 nM; in the experiment with HLA-A*24:03 it was at most 0.1 nM; with HLA-C*14:02, 0.4 nM. Further, the Kd with HLA-B*83:01 (setting [18]) and with HLA-B*45:06 (setting [18]) was at least 5000 nM each time.

On to CISSCNPNP, for which, in the experiment with HLA-A*02:01 [1] (source organism: Homo sapiens), the IC50 was at least 20000 nM.

With RTMEVFTMY, in the experiment with HLA-A*11:01 [14] (source organism: Yersinia pestis Nepal516), the Kd came out at 3.3 nM.

In the case of RVMAPRALL, the Kd is 775 nM with HLA-A*03:01 (source organism: Homo sapiens); 49 nM in the experiment with HLA-C*06:02 (source organism: Homo sapiens); 15600 nM in the experiment with HLA-A*02:01 [4] (source organism: Homo sapiens); 232 nM with HLA-B*07:02 (source organism: Homo sapiens); 143 nM with HLA-A*31:01 (source organism: Homo sapiens); 130 nM with HLA-A*69:01 (source organism: Homo sapiens). Moreover, the Kd in the experiment with HLA-B*15:01 [6] (source organism: Homo sapiens) worked out at 102 nM; with HLA-C*03:03, 113 nM; with HLA-B*27:05 (source organism: Homo sapiens) it was 2170 nM; with HLA-A*11:01 [7] (source organism: Homo sapiens), 1000 nM; in the experiment with HLA-B*58:01 (source organism: Homo sapiens) it was 304 nM; with HLA-A*32:07 (source organism: Homo sapiens) it was 21.9 nM. The Kd with HLA-B*15:42 (source organism: Homo sapiens) was at least 20000 nM; in the experiment with HLA-B*83:01 (source organism: Homo sapiens), 9340 nM; with HLA-B*45:06 (source organism: Homo sapiens), at least 5000 nM.
